These results are taken from article PMC10908828.

The target in test [1] is human full-length RAF1 (residues 1-648) with C-terminal His6 (human) (UniProt P04049). Kind of test: mass photometry; purified RAF1-HSP90-CDC37 complex.
In test [2] the target is insect HSP90 from Trichoplusia ni (Trichoplusia ni (endogenous in Tni-FNL cells)). As to the kind of experiment: mass photometry; purified RAF1-HSP90-CDC37 complex.

“insect HSP90 from Trichoplusia ni (natural protein)”: the stoichiometry N in test [1] and in test [2] was 2 throughout.
